US20090228996A1, “Means and Methods for influencing Interactions Between Dc-Sign and Dc-Sign Ligands” (priority 2006, published 2009)

Tests used:
[1] = target: T1, DC-SIGN-Fc (Homo sapiens, UniProt Q9NNX6); assay: DC-SIGN-Fc binding ELISA; conditions: major milk proteins at 1/20 dilution of physiological concentration in human milk
T1 construct: the extracellular portion of DC-SIGN (amino acids 64 to 404)
T1 sequence (Q9NNX6 64-404): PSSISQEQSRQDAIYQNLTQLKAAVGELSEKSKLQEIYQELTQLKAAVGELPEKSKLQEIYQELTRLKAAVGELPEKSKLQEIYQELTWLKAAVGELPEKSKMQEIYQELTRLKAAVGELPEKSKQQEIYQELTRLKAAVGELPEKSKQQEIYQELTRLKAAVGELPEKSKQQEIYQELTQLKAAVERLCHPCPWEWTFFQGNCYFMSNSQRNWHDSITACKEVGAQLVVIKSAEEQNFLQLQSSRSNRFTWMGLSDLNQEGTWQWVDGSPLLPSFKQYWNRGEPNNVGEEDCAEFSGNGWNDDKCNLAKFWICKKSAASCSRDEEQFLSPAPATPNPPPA
Experimental: DC-SIGN-Fc binding ELISA. The DC-SIGN-Fc chimera contained the extracellular portion of DC-SIGN (amino acids 64 to 404) fused at the C-terminus to a human immunoglobulin (Ig) G1 Fc fragment and has been previously described (Geijtenbeek et al, 2002). Human milk or human milk compounds were diluted in 0.2M NaHCO3, coated on ELISA plates (maxisorb plate; Nunc) and incubated overnight at 4° C. or 2 hours at 37° C. This was followed by blocking with TSM containing 1% BSA for 30 minutes at 37° C. before addition of soluble DC-SIGN-Fc (5 μg/ml) for 2 hours at RT, the binding was determined by incubation of a peroxidase labeled anti-IgG1 antibody for 30 minutes at RT. DC-SIGN-Fc binding specificity was determined by pre-incubation of the DC-SIGN-FC with either 50 μg/ml DC-SIGN specific mouse antibody AZN-D1 (Geijtenbeek et al, 2000 a) or 10 mM EGTA. Single-cycle-replication transmission assay. The assay was performed as previously described (Groot et al, 2005). In short mDCs and iDCs were incubated in a 96-well-plate (35−50×10^3 DC/well) with human milk for 30 minutes at 37° C. before addition of the virus (5 ng p24/well), which was incubated for 2 hours at 37° C. The DCs were washed twice with PBS before addition of 50×10^3 LuSIV cells. After 24 hours, LuSIV cells were harvested and resuspended in 50 μl lysis buffer (25 mM Tris-Cl 7.8, 2 mM DTT, 2 mM CDTA, 10% glycerol, 1% Triton X100). The cells were then incubated for 45 minutes at room temperature while shaking, followed by 10 minutes centrifugation at 3200×g. The supernatant was transferred to a white-solid 96 well plate (Corning Costar), and 150 μl of lucibuffer (100 μg/ml BSA, 6.6 mM ATP, 15 mM MgSO4, 25 mM glycylglycine) was added. 100 μl of DE(−)Luciferin (Roche Diagnostics GmbH) was injected per well (0.28 mg/ml lucibuffer excluding ATP). 50×10^3 LuSIV cells grown without DC or HIV-1 were used to obtain the background luciferase value.
DC-SIGN-Fc binding ELISA. The DC-SIGN-Fc chimera contained the extracellular portion of DC-SIGN (amino acids 64 to 404) fused at the C-terminus to a human immunoglobulin (Ig) G1 Fc fragment which has been previously described (Geijtenbeek et al, 2002). Human milk or BSSL were diluted in 0.2 M NaHCO3, coated on ELISA plates (maxisorb plate; Nunc) and incubated overnight at 4° C. or 2 hours at 37° C. This was followed by blocking with TSM containing 1% BSA for 30 minutes at 37° C. before addition of soluble DC-SIGN-Fc (5 μg/ml) for 2 hours at RT, the binding was determined by incubation of a peroxidase labeled anti-IgG1 antibody for 30 minutes at RT. DC-SIGN-Fc binding specificity was determined by pre-incubation of the DC-SIGN-Fc with either 50 μg/ml DC-SIGN specific mouse antibody AZN-D1 (Geijtenbeek et al, 2000 a) or 10 mM EGTA.

[2] = target: T2, DC-SIGN on iDCs (Homo sapiens, UniProt Q9NNX6); assay: gp120 bead adhesion assay, immature DCs; format: cell-based; conditions: major milk proteins at 1/20 dilution of physiological concentration in human milk
T2 construct: endogenous in cells
T2 sequence (Q9NNX6 1-404): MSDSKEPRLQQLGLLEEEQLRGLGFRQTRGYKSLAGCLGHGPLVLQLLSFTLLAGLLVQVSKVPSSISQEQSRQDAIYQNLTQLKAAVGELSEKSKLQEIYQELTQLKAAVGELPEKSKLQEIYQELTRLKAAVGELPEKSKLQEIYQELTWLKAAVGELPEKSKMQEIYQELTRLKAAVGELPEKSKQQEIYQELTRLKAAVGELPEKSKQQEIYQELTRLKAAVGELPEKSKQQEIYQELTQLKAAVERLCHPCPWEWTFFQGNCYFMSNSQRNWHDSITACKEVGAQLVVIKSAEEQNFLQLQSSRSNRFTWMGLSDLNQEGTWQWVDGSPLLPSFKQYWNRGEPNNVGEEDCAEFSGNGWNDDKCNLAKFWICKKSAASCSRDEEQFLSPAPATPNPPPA
Experimental: (§1) gp120 bead adhesion assay. Beads were prepared as previously described (Geijtenbeek et al, 2000 a), in short, streptavidin was covalently coupled to Carboxylate-modified TransFluoSpheres (488/645 nm, 1.0 μm; molecular probes). The steptavidin-beads were incubated with biotinylated F(ab′)2 fragment goat-anti-human IgG (6 μg/ml; Jackson Immunoresearch) and subsequently incubated overnight with gp120-Fc chimera. Fifty thousand cells, Raji-DC-SIGN cells, immature DCs or Raji-L-SIGN cells, were pre-incubated with human milk or milk compounds, AZN-D1 (Geijtenbeek et al, 2000 a), AZN-D2 (Halary et al, 2002), EGTA or mannan for 30 minutes at RT. The ligand-coated beads (20 beads/cell) were added to the pre-incubated cells and incubated for 30 minutes at 37° C. after which the cells were washed with TSM containing 0.5% BSA. After washing, the cells were resuspended in 100 μl TSM-BSA buffer and the adhesion was measured by flow cytometry (BD Biosciences).
(§2) gp120 bead adhesion assay. Beads were prepared as previously described (Geijtenbeek et al, 2000 a), in short, streptavidin was covalently coupled to Carboxylate-modified TransFluoSpheres (488/645 nm, 1.0 μm; molecular probes). The steptavidin-beads were incubated with biotinylated F(ab′)2 fragment goat-anti-human IgG (6 μg/ml; Jackson Immunoresearch) and subsequently incubated overnight with the gp120-Fc chimera. Fifty thousand cells, Raji-DC-SIGN cells or iDCs were pre-incubated with human milk, AZN-D1 (Geijtenbeek et al, 2000 a), AZN-D2 (Halary et al, 2002), EGTA or mannan for 30 minutes at RT. The ligand-coated beads (20 beads/cell) were added to the pre-incubated cells and incubated for 30 minutes at 37° C. after which the cells were washed with TSM (20 mM Tris, 150 mM NaCl, 1 mM CaCl2, 2 mM MgCl2) containing 0.5% BSA. After washing, the cells were resuspended in 100 μl TSM-BSA buffer and the adhesion was measured by flow cytometry (BD Biosciences).

[3] = target: T3, DC-SIGN on Raji-DC-SIGN cells (Homo sapiens, UniProt Q9NNX6); assay: gp120 bead adhesion assay, Raji-DC-SIGN cells; format: cell-based; conditions: major milk proteins at 1/20 dilution of physiological concentration in human milk
T3 construct: expressed in transfected cells; host or cells: Raji cells (Raji-DC-SIGN)
T3 sequence (Q9NNX6 1-404): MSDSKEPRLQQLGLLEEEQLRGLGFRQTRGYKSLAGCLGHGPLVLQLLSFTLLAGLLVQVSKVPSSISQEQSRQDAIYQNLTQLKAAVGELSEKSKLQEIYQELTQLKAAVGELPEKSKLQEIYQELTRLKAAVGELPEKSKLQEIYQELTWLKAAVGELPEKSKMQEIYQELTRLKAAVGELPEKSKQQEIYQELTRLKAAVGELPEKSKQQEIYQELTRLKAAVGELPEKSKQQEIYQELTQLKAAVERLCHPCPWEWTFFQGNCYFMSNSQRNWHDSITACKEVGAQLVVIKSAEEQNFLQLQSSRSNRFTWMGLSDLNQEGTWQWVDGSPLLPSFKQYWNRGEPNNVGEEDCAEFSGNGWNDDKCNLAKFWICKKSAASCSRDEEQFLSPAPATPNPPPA
Experimental: as §1, §2

[4] = target: T4, DC-SIGN (Homo sapiens, UniProt Q9NNX6); conditions: literature; cited from earlier work
T4 sequence (Q9NNX6 1-404): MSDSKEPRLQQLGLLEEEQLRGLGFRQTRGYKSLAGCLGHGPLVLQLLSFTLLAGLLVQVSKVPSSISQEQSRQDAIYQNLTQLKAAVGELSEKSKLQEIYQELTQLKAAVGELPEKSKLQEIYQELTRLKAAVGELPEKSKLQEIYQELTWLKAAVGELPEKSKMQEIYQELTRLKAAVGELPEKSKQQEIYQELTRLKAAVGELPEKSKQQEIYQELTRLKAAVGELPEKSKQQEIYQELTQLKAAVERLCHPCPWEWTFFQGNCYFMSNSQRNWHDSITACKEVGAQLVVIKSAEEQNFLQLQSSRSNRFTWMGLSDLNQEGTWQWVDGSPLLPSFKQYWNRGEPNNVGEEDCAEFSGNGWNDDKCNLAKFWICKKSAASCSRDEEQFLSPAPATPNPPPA

B1: human SLPI: human milk protein SLPI (Sigma) (protein, UniProt P03973 26-132, looked up)
Antileukoproteinase: SGKSFKAGVCPPKKSAQCLRYKKPECQSDWQCPGKKRCCPDTCGIKCLDPVDTPNPTRRKPGKCPVTYGQCLMLNPPNFCEMDGQCKRDLKCCMGMCGKSCVSPVKA
DC-SIGN-Fc binding to coated milk compound [1]: showed no binding
gp120 binding to iDCs [2]: None of the tested human milk compounds could inhibit gp120 binding
gp120 binding to Raji-DC-SIGN [3]: None of the tested human milk compounds could inhibit gp120 binding

B2: human α-lactalbumin: major human milk protein (Sigma) (protein, UniProt P00709 20-142, looked up)
Alpha-lactalbumin: KQFTKCELSQLLKDIDGYGGIALPELICTMFHTSGYDTQAIVENNESTEYGLFQISNKLWCKSSQVPQSRNICDISCDKFLDDDITDDIMCAKKILDIKGIDYWLAHKALCTEKLEQWLCEKL
DC-SIGN-Fc binding to coated milk compound [1]: showed no binding
gp120 binding to iDCs [2]: None of the tested human milk compounds could inhibit gp120 binding
gp120 binding to Raji-DC-SIGN [3]: None of the tested human milk compounds could inhibit gp120 binding

B3: human lactoferrin: major human milk protein (Sigma-Aldrich) (protein, UniProt P02788 20-710, looked up)
Lactotransferrin: GRRRSVQWCAVSQPEATKCFQWQRNMRKVRGPPVSCIKRDSPIQCIQAIAENRADAVTLDGGFIYEAGLAPYKLRPVAAEVYGTERQPRTHYYAVAVVKKGGSFQLNELQGLKSCHTGLRRTAGWNVPIGTLRPFLNWTGPPEPIEAAVARFFSASCVPGADKGQFPNLCRLCAGTGENKCAFSSQEPYFSYSGAFKCLRDGAGDVAFIRESTVFEDLSDEAERDEYELLCPDNTRKPVDKFKDCHLARVPSHAVVARSVNGKEDAIWNLLRQAQEKFGKDKSPKFQLFGSPSGQKDLLFKDSAIGFSRVPPRIDSGLYLGSGYFTAIQNLRKSEEEVAARRARVVWCAVGEQELRKCNQWSGLSEGSVTCSSASTTEDCIALVLKGEADAMSLDGGYVYTAGKCGLVPVLAENYKSQQSSDPDPNCVDRPVEGYLAVAVVRRSDTSLTWNSVKGKKSCHTAVDRTAGWNIPMGLLFNQTGSCKFDEYFSQSCAPGSDPRSNLCALCIGDEQGENKCVPNSNERYYGYTGAFRCLAENAGDVAFVKDVTVLQNTDGNNNEAWAKDLKLADFALLCLDGKRKPVTEARSCHLAMAPNHAVVSRMDKVERLKQVLLHQQAKFGRNGSDCPDKFCLFQSETKNLLFNDNTECLARLHGKTTYEKYLGPQYVAGITNLKKCSTSPLLEACEFLRK
DC-SIGN-Fc binding to coated milk compound [1]: showed no binding
gp120 binding to iDCs [2]: None of the tested human milk compounds could inhibit gp120 binding
gp120 binding to Raji-DC-SIGN [3]: None of the tested human milk compounds could inhibit gp120 binding

B4: bovine lactoferrin: control protein previously shown to bind DC-SIGN (protein, UniProt P24627 20-708, looked up)
Lactotransferrin: APRKNVRWCTISQPEWFKCRRWQWRMKKLGAPSITCVRRAFALECIRAIAEKKADAVTLDGGMVFEAGRDPYKLRPVAAEIYGTKESPQTHYYAVAVVKKGSNFQLDQLQGRKSCHTGLGRSAGWIIPMGILRPYLSWTESLEPLQGAVAKFFSASCVPCIDRQAYPNLCQLCKGEGENQCACSSREPYFGYSGAFKCLQDGAGDVAFVKETTVFENLPEKADRDQYELLCLNNSRAPVDAFKECHLAQVPSHAVVARSVDGKEDLIWKLLSKAQEKFGKNKSRSFQLFGSPPGQRDLLFKDSALGFLRIPSKVDSALYLGSRYLTTLKNLRETAEEVKARYTRVVWCAVGPEEQKKCQQWSQQSGQNVTCATASTTDDCIVLVLKGEADALNLDGGYIYTAGKCGLVPVLAENRKSSKHSSLDCVLRPTEGYLAVAVVKKANEGLTWNSLKDKKSCHTAVDRTAGWNIPMGLIVNQTGSCAFDEFFSQSCAPGADPKSRLCALCAGDDQGLDKCVPNSKEKYYGYTGAFRCLAEDVGDVAFVKNDTVWENTNGESTADWAKNLNREDFRLLCLDGTRKPVTEAQSCHLAVAPNHAVVSRSDRAAHVKQVLLHQQALFGKNGKNCPDKFCLFKSETKNLLFNDNTECLAKLGGRPTYEEYLGTEYVTAIANLKKCSTSPLLEACAFLTR
previously shown DC-SIGN binding [4]: bind DC-SIGN and prevent viral transfer

B5: bovine β-casein: milk protein (NIZO Food Research) (protein, UniProt P02666 16-224, looked up)
Beta-casein: RELEELNVPGEIVESLSSSEESITRINKKIEKFQSEEQQQTEDELQDKIHPFAQTQSLVYPFPGPIPNSLPQNIPPLTQTPVVVPPFLQPEVMGVSKVKEAMAPKHKEMPFPKYPVEPFTESQSLTLTDVENLHLPLPLLQSWMHQPHQPLPPTVMFPPQSVLSLSQSKVLPVPQKAVPYPQRDMPIQAFLLYQEPVLGPVRGPFPIIV
DC-SIGN-Fc binding to coated milk compound [1]: showed no binding
gp120 binding to iDCs [2]: None of the tested human milk compounds could inhibit gp120 binding
gp120 binding to Raji-DC-SIGN [3]: None of the tested human milk compounds could inhibit gp120 binding
